± gives the standard deviation of the averaged measurements.
Key:
[1] = system: VchCAST RNA-guided transposition machinery (E. coli BL21(DE3) host, lacZ target); assay: relative integration efficiency (T-RL orientation) vs wild-type transposon end (log2 (normalized fold change)); transposon end mutated: right end (5 bp flank + 75 bp right end); higher = more efficient transposition
Description: (§1)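 Pooled, barcoded VchCAST (Tn6677) mini-transposon donor libraries; each variable transposon-end sequence sits in a fixed pDonor mini-transposon context (10-bp barcode and cargo not included). Left- or right-end libraries were co-transformed with pEffector (TniQ-Cascade, TnsABC, lacZ crRNA, T7, 0.1 mM IPTG) into E. coli BL21(DE3) and grown 18 h at 37 C. T-LR and T-RL junction amplicons were sequenced; output/input barcode fold change was normalised to the mean of four wild-type barcodes and log2-transformed. Two biological replicates; zero-count/undetected variants carry floor values (-10 / -15), censored here. Barcode uncoupling by PCR recombination adds noise.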

[2] = system: VchCAST RNA-guided transposition machinery (E. coli BL21(DE3) host, lacZ target); assay: relative integration efficiency (T-LR orientation) vs wild-type transposon end (log2 (normalized fold change)); transposon end mutated: right end (5 bp flank + 75 bp right end); higher = more efficient transposition
Description: as §1

ACATTAGTTGATACAACCATAAAATGATAATTACACCCATAAATTGATCATTATCACACCCAATTTAACTATAACGCTCTGATCATAGTCAGACCAACATTGCTACGACCCGTATTCGCACCGACAC
relative integration efficiency (log2) [1]: -7.38 ± 0.13
relative integration efficiency (log2) [2]: -5.7 ± 0.14

ACATTGGTCGATACAACCATAAAATGATAATTACACCCATAAATTCATAATTATCACACCCAATTTAACTATAACGCTCTGATCATAGTCAGACCAACATTGCTACGACCCGTATTCGCACCGACAC
relative integration efficiency (log2) [1]: -7.939 ± 0.019
relative integration efficiency (log2) [2]: -7.44 ± 1.2

ACATTGGTCGATACAACCATAAAATGATAATTACACCCATAAATTCATCATTATCACACCCAATTTAACTATAACGCTCTGATCATAGTCAGACCAACATTGCTACGACCCGTATTCGCACCGACAC
relative integration efficiency (log2) [1]: -7.035 ± 0.062
relative integration efficiency (log2) [2]: -5.19 ± 1.2

ACATTGGTCGATACAACCATAAAATGATAATTACACCCATAAATTGATAATTATCACACCCAATTTAACTATAACGCTCTGATCATAGTCAGACCAACATTGCTACGACCCGTATTCGCACCGACAC
relative integration efficiency (log2) [1]: -7.79 ± 0.62
relative integration efficiency (log2) [2]: -5.26 ± 0.85

ACATTGGTCGATACAACCATAAAATGATAATTACACCCATAAATTGATCATTATCACACCCAATTTAACTATAACGCTCTGATCATAGTCAGACCAACATTGCTACGACCCGTATTCGCACCGACAC
relative integration efficiency (log2) [1]: -7.023 ± 0.019
relative integration efficiency (log2) [2]: -5.922 ± 0.042

ACATTGGTGGATACAACCATAAAATGATAATTACACCCATAAATGGATAATTATCACACCCAATTTAACTATAACGCTCTGATCATAGTCAGACCAACATTGCTACGACCCGTATTCGCACCGACAC
relative integration efficiency (log2) [1]: -7.53 ± 0.13
relative integration efficiency (log2) [2]: -5.04 ± 0.46

ACATTGGTGGATACAACCATAAAATGATAATTACACCCATAAATGGATCATTATCACACCCAATTTAACTATAACGCTCTGATCATAGTCAGACCAACATTGCTACGACCCGTATTCGCACCGACAC
relative integration efficiency (log2) [1]: -7.25 ± 0.2
relative integration efficiency (log2) [2]: -6.75 ± 1

ACATTGGTGGATACAACCATAAAATGATAATTACACCCATAAATTCATAATTATCACACCCAATTTAACTATAACGCTCTGATCATAGTCAGACCAACATTGCTACGACCCGTATTCGCACCGACAC
relative integration efficiency (log2) [1]: -6.19 ± 0.92
relative integration efficiency (log2) [2]: -4.36 ± 0.31

ACATTGGTGGATACAACCATAAAATGATAATTACACCCATAAATTCATCATTATCACACCCAATTTAACTATAACGCTCTGATCATAGTCAGACCAACATTGCTACGACCCGTATTCGCACCGACAC
relative integration efficiency (log2) [1]: -7.11 ± 0.38
relative integration efficiency (log2) [2]: -4.79 ± 0.16

ACATTGGTGGATACAACCATAAAATGATAATTACACCCATAAATTGATCATTATCACACCCAATTTAACTATAACGCTCTGATCATAGTCAGACCAACATTGCTACGACCCGTATTCGCACCGACAC
relative integration efficiency (log2) [1]: -6.97 ± 0.42
relative integration efficiency (log2) [2]: -6.549 ± 0.042

ACATTGGTTCATACAACCATAAAATGATAATTACACCCATAAATGGATAATTATCACACCCAATTTAACTATAACGCTCTGATCATAGTCAGACCAACATTGCTACGACCCGTATTCGCACCGACAC
relative integration efficiency (log2) [1]: -7.74 ± 0.3
relative integration efficiency (log2) [2]: -5.92 ± 3.5

ACATTGGTTCATACAACCATAAAATGATAATTACACCCATAAATTCATAATTATCACACCCAATTTAACTATAACGCTCTGATCATAGTCAGACCAACATTGCTACGACCCGTATTCGCACCGACAC
relative integration efficiency (log2) [1]: -6.669 ± 0.029
relative integration efficiency (log2) [2]: -6.28 ± 2.6

ACATTGGTTCATACAACCATAAAATGATAATTACACCCATAAATTCATCATTATCACACCCAATTTAACTATAACGCTCTGATCATAGTCAGACCAACATTGCTACGACCCGTATTCGCACCGACAC
relative integration efficiency (log2) [1]: -7.13 ± 0.28
relative integration efficiency (log2) [2]: -6.18 ± 1.9

ACATTGGTTCATACAACCATAAAATGATAATTACACCCATAAATTGATAATTATCACACCCAATTTAACTATAACGCTCTGATCATAGTCAGACCAACATTGCTACGACCCGTATTCGCACCGACAC
relative integration efficiency (log2) [1]: -7.42 ± 0.14
relative integration efficiency (log2) [2]: -4.38 ± 1.6

ACATTGGTTGATACAACCATAAAATGATAATTACACCCATAAATGGATAATTATCACACCCAATTTAACTATAACGCTCTGATCATAGTCAGACCAACATTGCTACGACCCGTATTCGCACCGACAC
relative integration efficiency (log2) [1]: -7.99 ± 0.69
relative integration efficiency (log2) [2]: -5.61 ± 0.44

ACATTGGTTGATACAACCATAAAATGATAATTACACCCATAAATGGATCATTATCACACCCAATTTAACTATAACGCTCTGATCATAGTCAGACCAACATTGCTACGACCCGTATTCGCACCGACAC
relative integration efficiency (log2) [1]: -7.55 ± 0.43
relative integration efficiency (log2) [2]: -5.25 ± 0.34

ACATTGGTTGATACAACCATAAAATGATAATTACACCCATAAATTCATAATTATCACACCCAATTTAACTATAACGCTCTGATCATAGTCAGACCAACATTGCTACGACCCGTATTCGCACCGACAC
relative integration efficiency (log2) [1]: -6.39 ± 0.064
relative integration efficiency (log2) [2]: -5.532 ± 0.042

ACATTGGTTGATACAACCATAAAATGATAATTACACCCATAAATTCATCATTATCACACCCAATTTAACTATAACGCTCTGATCATAGTCAGACCAACATTGCTACGACCCGTATTCGCACCGACAC
relative integration efficiency (log2) [1]: -7.43 ± 0.34
relative integration efficiency (log2) [2]: -5.884 ± 0.042

ACATTGGTTGATACAACCATAAAATGATAATTACACCCATAAATTGATCATTATCACACCCAATTTAACTATAACGCTCTGATCATAGTCAGACCAACATTGCTACGACCCGTATTCGCACCGACAC
relative integration efficiency (log2) [1]: -7.17 ± 0.13
relative integration efficiency (log2) [2]: -6.54 ± 2

ACATTGTTTGATACAACCATAAAATGATAATTACACCCATAAATTGATAATTATCACACCCATAAATTGATATTGCCTCTGATCATAGTCAGACCAACATTGCTACGACCCGTATTCGCACCGACAC
relative integration efficiency (log2) [1]: -6.33 ± 0.24
relative integration efficiency (log2) [2]: -4.94 ± 0.3

ACATTTCATGATACAACCATAAAATGATAATTACACCCATAAATTGATAATTATCACACCCATAAATTGATATTGCCTCTGATCATAGTCAGACCAACATTGCTACGACCCGTATTCGCACCGACAC
relative integration efficiency (log2) [1]: -4.85 ± 0.79
relative integration efficiency (log2) [2]: -5.68 ± 0.91

ACATTTCTCGATACAACCATAAAATGATAATTACACCCATAAATGGATAATTATCACACCCAATTTAACTATAACGCTCTGATCATAGTCAGACCAACATTGCTACGACCCGTATTCGCACCGACAC
relative integration efficiency (log2) [1]: -1.99 ± 0.23
relative integration efficiency (log2) [2]: 0.276 ± 0.061

ACATTTCTCGATACAACCATAAAATGATAATTACACCCATAAATGGATCATTATCACACCCAATTTAACTATAACGCTCTGATCATAGTCAGACCAACATTGCTACGACCCGTATTCGCACCGACAC
relative integration efficiency (log2) [1]: -2.3 ± 0.27
relative integration efficiency (log2) [2]: 0.0432 ± 0.045

ACATTTCTCGATACAACCATAAAATGATAATTACACCCATAAATTCATAATTATCACACCCAATTTAACTATAACGCTCTGATCATAGTCAGACCAACATTGCTACGACCCGTATTCGCACCGACAC
relative integration efficiency (log2) [1]: -1.95 ± 0.18
relative integration efficiency (log2) [2]: 0.496 ± 0.27

ACATTTCTCGATACAACCATAAAATGATAATTACACCCATAAATTCATCATTATCACACCCAATTTAACTATAACGCTCTGATCATAGTCAGACCAACATTGCTACGACCCGTATTCGCACCGACAC
relative integration efficiency (log2) [1]: -3.05 ± 0.46
relative integration efficiency (log2) [2]: 0.303 ± 0.055

ACATTTCTCGATACAACCATAAAATGATAATTACACCCATAAATTGATAATTATCACACCCAATTTAACTATAACGCTCTGATCATAGTCAGACCAACATTGCTACGACCCGTATTCGCACCGACAC
relative integration efficiency (log2) [1]: -1.57 ± 0.34
relative integration efficiency (log2) [2]: 1 ± 0.028

ACATTTCTCGATACAACCATAAAATGATAATTACACCCATAAATTGATCATTATCACACCCAATTTAACTATAACGCTCTGATCATAGTCAGACCAACATTGCTACGACCCGTATTCGCACCGACAC
relative integration efficiency (log2) [1]: -1.71 ± 0.54
relative integration efficiency (log2) [2]: 1.36 ± 0.048

ACATTTCTGGATACAACCATAAAATGATAATTACACCCATAAATGGATAATTATCACACCCAATTTAACTATAACGCTCTGATCATAGTCAGACCAACATTGCTACGACCCGTATTCGCACCGACAC
relative integration efficiency (log2) [1]: -2.35 ± 0.26
relative integration efficiency (log2) [2]: -0.444 ± 0.28

ACATTTCTGGATACAACCATAAAATGATAATTACACCCATAAATGGATCATTATCACACCCAATTTAACTATAACGCTCTGATCATAGTCAGACCAACATTGCTACGACCCGTATTCGCACCGACAC
relative integration efficiency (log2) [1]: -3.09 ± 0.37
relative integration efficiency (log2) [2]: -0.629 ± 0.35

ACATTTCTGGATACAACCATAAAATGATAATTACACCCATAAATTCATAATTATCACACCCAATTTAACTATAACGCTCTGATCATAGTCAGACCAACATTGCTACGACCCGTATTCGCACCGACAC
relative integration efficiency (log2) [1]: -3.39 ± 0.26
relative integration efficiency (log2) [2]: -0.65 ± 0.075

ACATTTCTGGATACAACCATAAAATGATAATTACACCCATAAATTCATCATTATCACACCCAATTTAACTATAACGCTCTGATCATAGTCAGACCAACATTGCTACGACCCGTATTCGCACCGACAC
relative integration efficiency (log2) [1]: -3.59 ± 0.54
relative integration efficiency (log2) [2]: -0.104 ± 0.069

ACATTTCTGGATACAACCATAAAATGATAATTACACCCATAAATTGATAATTATCACACCCAATTTAACTATAACGCTCTGATCATAGTCAGACCAACATTGCTACGACCCGTATTCGCACCGACAC
relative integration efficiency (log2) [1]: -1.94 ± 0.42
relative integration efficiency (log2) [2]: 0.495 ± 0.035

ACATTTCTGGATACAACCATAAAATGATAATTACACCCATAAATTGATCATTATCACACCCAATTTAACTATAACGCTCTGATCATAGTCAGACCAACATTGCTACGACCCGTATTCGCACCGACAC
relative integration efficiency (log2) [1]: -2.77 ± 0.4
relative integration efficiency (log2) [2]: 0.307 ± 0.3

ACATTTCTTCATACAACCATAAAATGATAATTACACCCATAAATGGATAATTATCACACCCAATTTAACTATAACGCTCTGATCATAGTCAGACCAACATTGCTACGACCCGTATTCGCACCGACAC
relative integration efficiency (log2) [1]: -4.17 ± 0.17
relative integration efficiency (log2) [2]: -2.86 ± 0.049

Source: the supplement of paper PMC10201428
